Experiment: soluble fraction after stress (log2 fold change); higher = more stays soluble; pooled small domains, quantitative proteomics
Conditions: stress: 75 degC
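Note: 20 min heating vs room temperature control held 20 min.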

| Sequence | soluble fraction (log2) |
| --- | --- |
| HMLEAKQIQDNWESLIKLIEDNFTGERKENLLKMYTHFQDRMMFAPASSKEHFHNAFPGGYVEHVL | -0.369 |
| HMLEDIDNSIKKEIILEHYDKMLEFHGDYGAIIFRKLLHAYSKGYTGANEFRDLVNQISDKNIMRDLIESF | -0.947 |
| HMLEEIIDVKRFLVENVRGVSEKTALAILSEFGDKTMDVLRNSPNELYRIKGMSGKRIEVIKDAIANATAS | -0.568 |
| HMLEINTIIGNNLKKIRQEKKLTLDELAGITGVSKGMLSQIEKGTTNPTINTIWKISNGLNVPYTYLLEDD | -0.513 |
| HMLENIVFTNKFKNKRLDVLLVDMKLVSSRQKAVSLIMRGNVFVEEERADKPGKIIKLNQTISLKK | -2.78 |
| HMLERPLKLKSHYVSAINEKVAVQFQAGEERKSIMGTLTEVNQDTIVIDDRGSVTEIPFKSIIRAKTVF | -0.621 |
| HMLESPVEAIIRQIKQLITNGKLKPGDRLPAERLLAENFGVGRGYVREAIMKLEFFGLLKTSPQSGTYVAG | -1.39 |
| HMLETIDIFKVTGGEPFLSKDFLEILDLAIEKDLAKNITLMITTNASKFVKKILDKFIHFKRVEFTVS | 0.407 |
| HMLFGKKYLGKVPNDASGRISLWNDIVKHHQELQNIRAIENFTSDNVTVAQGDTKKAVVVTDYVT | -0.286 |
| HMLFQGDTPAENIILEILSKNGTTASDSIIKQSGLSVSDFNQAATMLEIKGLISNNGGNIWSL | -0.0591 |
| HMLFVKLSDAQRSMFGAKLARDARIQSEYAQKLPSENYEVFGKALADMLLDETHFKTFYPLLVEYGYTQPK | -1.32 |
| HMLGDIYISIPRAKLQAEEYGHSFKRELAFLAVHGFYHLLGYDHQTKEEEEVMFGKQEEVLAEFDIKR | -0.0616 |
| HMLGKNEAKEYKVAYGDIGKMPALIMGLVPLPKPPVVDERLRTLYVTATPEQHREIEAIMNRI | 0.236 |
| HMLGKSNAERQLDLILGAIERSITGVSRSKLMQAYHLDSRGATAAFETLEQRGLITRSKSGRTELLIPTRV | -1.78 |
| HMLGWEDVIQFEEVKGYGQHIWRDGNHLYYVTEEGGIAPQRVVYELPNELFALLESGERTQLEILSKLQ | -2.51 |
| HMLHNEFINDRIQSAINNLSEHFKIVIILRDIQELSYEEISNIVEVPLGTIKSRINRARIQLQAELLDL | 0.215 |
| HMLILDTDGRYVIKRGDSLSEILEKIANGSNINLNLLKRAFVTANPKAFKRANPNWMYANAR | -0.249 |
| HMLIPTISVTKEGQLRFENIPVSWEELGTRLRDVSDLDKIKIYADAESDALTISEIMKTAANVGIVQFVLV | -1.03 |
| HMLIRKGVVSFFNDAKGYGFIKDLVTQESAFVHVNSLSETIKEHDKVTFEVEMGHKGANAVNVKLVK | -1.09 |
| HMLIVLKPNVSQEEIDHIVDKIRSLSLEPHVSTGVQRTIITVIGDEDVIREQPLEALAGVESVKSILKP | -0.358 |
| HMLKGTVKWFNESKGFGFIEQEEGKDVFVHYSAITGSGFKTLNEGDKVQFEIVDGPKGPAAANVSK | 0.036 |
| HMLKKGDQVYIISGKDKGKLGVVSQIVSEERILVDGINLAKKHVKPNPNKNETGGVVEKEMPIHASNVMI | 0.243 |
| HMLKLTDRQKVILSILMSDGEKTASWIASQLGVGLRSVQLDLSYLRNNGFIKKASKSTHSAWIVLKK | -4.1 |
| HMLKPIHKDWSPNGDAKEILLKAGITEEFIQKELPEFIMYWSERNEESDIWNSKFIAHIRRRWGRFS | -1.64 |
| HMLKPVVLLGARGLTDAVEKEVERALDEHGLIKIHVPSDDREERDEIYTTLADKLNAARIQAIGKMLVLW | -0.0344 |
| HMLKSGSAVAQARDVILEKGVPVHINEILDALGKGDTREAKASLTSSLAAYVRRGEIFTRPAPNTFGLVEL | -0.592 |
| HMLKTADAIASVLLTRIQAGEFSAGRLPAERALSEAFSTTRITLREALGKLEAQGMIYRELRRGWFIA | -1.85 |
| HMLLFNPGEVLKGFVLQSGTNNRVLLQIGDSRVIADTQTPLKAGEQLVLRVEETGPKTILQILG | 0.177 |

| Sequence | soluble fraction (log2) |
| --- | --- |
| HMLLGDYIQKLRNQRGLSQQEFADKLGIGRSTLANYEQNKRSPDYETLIEISKFFNVSIDELLGV | -1.05 |
| HMLLLASTPAEQTIIQLLAEGWRDGDQLQQRSHLSAADFSTALTMLEVNGSIKPLGANHWALTH | -1.26 |
| HMLLPANLTKSQRNIAERVARGQSNLEIAADLNITERTVKAHLTSIYEKTKTGNRLNLALLINLG | -0.289 |
| HMLLPGEELRVMIIQEGKEYGQGVGYLDDGTMVVVEDGQRALNRTENVVVTKVLQTTAGRMIFAK | -0.71 |
| HMLLQENRKLHSKLEELQLISRAKAVLIEYLKLTEPQAHRYIEKQAMDLGLTRPQVALNILKTYE | -1.38 |
| HMLLQTAVISTDIVNMRAEPTTNSSVIRKLTKGSDITINQEKDGWYKISDDQGNSGWIVTWAAKPT | -0.208 |
| HMLMDVRVPDIIGVEINQAKEILTASSLLIGKITYVSLPEIEKDLVIETSVLAGRRVSAGTVIDITVNKE | -2.09 |
| HMLMKPQKTRDVLRYLKSIGWVRLRGGQGSHEIWGLPDGSIRAVIPAGHREISAGVLMQLKRAGVDVPTQW | -1.25 |
| HMLMLTPGQIAQTLDVSTATVRRWSARYARHLSPNTPGKKRSYTVDDLAVLTRVRDLSATGTPLAQIDQAL | -2.11 |
| HMLMLTPGQVSNSLNVSTATVRRWSARFARHLSPQPPNRKRSYTPDDLATLARVRDLSASGTSLAQIDIAL | -2.59 |
| HMLMRSPDFLIGWFQNLVAKRETFNDQVQAKNLIEAGKQHIQGEDFDRLLEVNRRLFSLLPQREQE | 0.177 |
| HMLNAPFGFRIEDDTLIPIPEEAKVVRQIFRYYLQGMGFGKIAQELNGQDVPGKPWGKERIKYILSNEKYI | -2.47 |
| HMLNERQKKIIKILKDNKNWMTGKELSEFLNVSDRTIRSDIEYINRYNNALIESNVKNGYHLNFE | -0.233 |
| HMLNIVTIFEEQFGRPLSPIELNIIKDWKESDYSDEMIVKALKEAVKSQVLNFRYVEGILNNWAKNG | -0.783 |
| HMLNLNEAEKSIYVLIKKNESNNLNKVKEDSNLSNKAWDKGIKNLVKNNLVKVVKSNEGLFIQLV | -0.636 |
| HMLNLNILTDKEKFIAKLISRGLSDSLIAKELYISISTVRSHVNSIYGKTNIKNRSHLASSFLYFELGNLL | -0.204 |
| HMLNPMILLTKGGENIRLDKFLSSHLSDLSRTQIQKMVKEGLVLVNGEPSKVGLKLDGSETIQYTLPK | -0.18 |
| HMLNSISIKTNKKIDFLEKNEHLVNFVYEKETMEHIYNLSYENKKDLQELQNKLSDIEGIIKINTDL | 0.651 |
| HMLPDVSITGHIFIRSGSRLNRIFVGESTYHVGDMLDGKWLIESINSDSLELRSGTQTTELPL | -2.83 |
| HMLPDYLIELKKKADSGDAVSQNDIGNIYLYGLPRVNIYPDEKNIGIGIDYLYKAAWQDQVNAMTTI | -0.098 |
| HMLPELQPGQTFSARIQQALPDNTYRALVAGKQLTLQLPEGAKAGDELELVVLDRSARVIIARQVD | -0.691 |
| HMLPGERFKVKIAQAGKEKKQGIGYLNDGTMVVIENGIEKVGEEVEAVVIKVIQSSAGKIIFSEVAK | 0.0862 |
| HMLPGKEIPLPEFLREAFARNEPALENFQNLAPSYRRQYILWITSAKTPETVQKRISESIGLLKENRKLGM | -0.616 |
| HMLPGLGPIERAQFMLQAIPGISPTRSAALIDKFGSIAGIAQASIKDIQTIEGIGKKTATTLYEVLNAG | -0.39 |
| HMLPISGDDRDALDMAALILKQYDSLPILKEFANVVTKLQTVLDGVVSNSIEARRQMIQFEE | 0.0649 |
| HMLPITPGQKYKFVVKSAEEAAAIIRDKLGEMAQVISVRQVEGEGLARFLKSPKLEIIAQVPVA | -0.35 |
| HMLPLGSNEYETAVIKHLASGVQDADEIQRLTGIDQTSLNTALTMLELAGTIRPLGNNHWTL | 0.459 |
